Experimental data from patent US20180258163A1 (Chugai, published 2018).
Where a chain is given by its changes, count along the chain named. Names may count otherwise.

T1: soluble human FcγRIIb (human, UniProt P31994 43-217, limits assumed)
T1 construct: soluble His-tagged form; also called hFcγRIIb
T1 sequence (looked up): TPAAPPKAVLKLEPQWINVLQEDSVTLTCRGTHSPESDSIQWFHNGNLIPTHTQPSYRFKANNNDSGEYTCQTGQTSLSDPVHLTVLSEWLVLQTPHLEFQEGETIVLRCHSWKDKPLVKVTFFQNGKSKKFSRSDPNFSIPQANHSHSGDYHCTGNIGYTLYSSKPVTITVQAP

B1: Ab1H-P1394m/Ab1L (antibody, human IgG1, kappa)
heavy: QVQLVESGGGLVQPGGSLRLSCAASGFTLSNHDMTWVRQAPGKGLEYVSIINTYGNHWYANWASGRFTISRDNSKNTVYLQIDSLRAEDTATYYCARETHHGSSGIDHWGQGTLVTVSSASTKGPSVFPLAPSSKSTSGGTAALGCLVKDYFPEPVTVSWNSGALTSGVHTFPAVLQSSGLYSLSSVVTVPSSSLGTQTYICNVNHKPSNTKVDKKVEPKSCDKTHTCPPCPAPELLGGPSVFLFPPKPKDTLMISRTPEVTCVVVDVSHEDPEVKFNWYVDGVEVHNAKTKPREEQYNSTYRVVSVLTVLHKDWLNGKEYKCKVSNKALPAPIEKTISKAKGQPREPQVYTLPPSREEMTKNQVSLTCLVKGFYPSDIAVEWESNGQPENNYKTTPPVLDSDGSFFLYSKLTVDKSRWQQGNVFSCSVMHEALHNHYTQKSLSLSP
light: DIQMTQSPSSVSASVGDRVTITCQASESIYSGLAWYQQKPGQPPKLLIYDHSTLASGVPSRFSGSGSGTEYALTISSLQPEDFATYYCQHADYAHHSDNVFGGGTKVEIKRTVAAPSVFIFPPSDEQLKSGTASVVCLLNNFYPREAKVQWKVDNALQSGNSQESVTEQDSKDSTYSLSSTLTLSKADYEKHKVYACEVTHQGLSSPVTKSFNRGEC
notes: heavy chain = Ab1H with Q311K (EU); copies: 2 + 2
B2: Ab1H-P1398m/Ab1L (antibody, human IgG1, kappa, name in EU numbering)
heavy: not shown
light: B1 light
notes: copies: 2 + 2
B3: Ab1H005m/Ab1L (antibody, human IgG1, kappa, name in Kabat numbering)
heavy: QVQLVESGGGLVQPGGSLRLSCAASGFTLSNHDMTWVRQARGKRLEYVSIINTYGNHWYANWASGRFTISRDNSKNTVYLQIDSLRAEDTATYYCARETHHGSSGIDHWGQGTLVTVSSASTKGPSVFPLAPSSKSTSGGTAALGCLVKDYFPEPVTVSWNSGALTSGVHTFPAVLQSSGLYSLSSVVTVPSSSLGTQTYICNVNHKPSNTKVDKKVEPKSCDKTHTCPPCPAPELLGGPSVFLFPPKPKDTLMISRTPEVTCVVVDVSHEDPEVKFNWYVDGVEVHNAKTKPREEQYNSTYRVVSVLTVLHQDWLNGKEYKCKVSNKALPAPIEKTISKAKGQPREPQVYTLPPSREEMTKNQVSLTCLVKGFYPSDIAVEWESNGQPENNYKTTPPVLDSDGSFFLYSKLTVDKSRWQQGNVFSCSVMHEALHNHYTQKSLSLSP
light: B1 light
notes: copies: 2 + 2
B4: Ab1H045/Ab1L (antibody, human IgG1, kappa, name in Kabat numbering)
heavy: not shown
light: B1 light
notes: copies: 2 + 2
B5: Ab1H013/Ab1L (antibody, human IgG1, kappa, name in Kabat numbering)
heavy: not shown
light: B1 light
notes: copies: 2 + 2
B6: Ab1H010/Ab1L (antibody, human IgG1, kappa, name in Kabat numbering)
heavy: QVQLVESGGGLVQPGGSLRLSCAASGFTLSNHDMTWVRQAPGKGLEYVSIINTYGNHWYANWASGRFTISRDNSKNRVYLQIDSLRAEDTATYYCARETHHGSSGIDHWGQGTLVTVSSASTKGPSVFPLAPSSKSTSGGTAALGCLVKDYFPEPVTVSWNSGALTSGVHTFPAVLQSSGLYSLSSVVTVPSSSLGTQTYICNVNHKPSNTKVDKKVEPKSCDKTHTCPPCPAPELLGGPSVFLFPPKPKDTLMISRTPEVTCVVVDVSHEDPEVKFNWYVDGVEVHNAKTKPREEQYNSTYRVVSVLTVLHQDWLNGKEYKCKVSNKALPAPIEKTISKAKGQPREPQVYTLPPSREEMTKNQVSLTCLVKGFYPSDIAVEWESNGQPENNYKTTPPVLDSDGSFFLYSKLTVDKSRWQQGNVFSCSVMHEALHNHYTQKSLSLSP
light: B1 light
notes: copies: 2 + 2
B7: Ab1H031m/Ab1L (antibody, human IgG1, kappa, name in Kabat numbering)
heavy: not shown
light: B1 light
notes: copies: 2 + 2
B8: Ab1H014/Ab1L (antibody, human IgG1, kappa, name in Kabat numbering)
heavy: not shown
light: B1 light
notes: copies: 2 + 2
B9: Ab1H018/Ab1L (antibody, human IgG1, kappa, name in Kabat numbering)
heavy: not shown
light: B1 light
notes: copies: 2 + 2
B10: Ab1H012/Ab1L (antibody, human IgG1, kappa, name in Kabat numbering)
heavy: not shown
light: B1 light
notes: copies: 2 + 2
B11: Ab1H027/Ab1L (antibody, human IgG1, kappa, name in Kabat numbering)
heavy: not shown
light: B1 light
notes: copies: 2 + 2
B12: Ab1H030/Ab1L (antibody, human IgG1, kappa, name in Kabat numbering)
heavy: not shown
light: B1 light
notes: copies: 2 + 2
B13: Ab1H016/Ab1L (antibody, human IgG1, kappa, name in Kabat numbering)
heavy: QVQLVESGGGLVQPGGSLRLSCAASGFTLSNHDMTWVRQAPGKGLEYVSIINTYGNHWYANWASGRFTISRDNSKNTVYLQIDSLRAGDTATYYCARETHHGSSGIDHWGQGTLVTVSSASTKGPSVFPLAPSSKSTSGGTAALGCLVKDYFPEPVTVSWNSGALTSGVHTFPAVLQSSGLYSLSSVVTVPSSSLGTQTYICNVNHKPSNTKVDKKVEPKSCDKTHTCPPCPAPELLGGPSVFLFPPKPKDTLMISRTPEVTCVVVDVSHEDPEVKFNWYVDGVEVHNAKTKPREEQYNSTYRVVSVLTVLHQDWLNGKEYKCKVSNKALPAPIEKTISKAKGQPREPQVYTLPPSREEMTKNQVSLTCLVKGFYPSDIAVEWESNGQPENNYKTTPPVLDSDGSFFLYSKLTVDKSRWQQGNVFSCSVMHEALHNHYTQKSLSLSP
light: B1 light
notes: copies: 2 + 2
B14: Ab1H029/Ab1L (antibody, human IgG1, kappa, name in Kabat numbering)
heavy: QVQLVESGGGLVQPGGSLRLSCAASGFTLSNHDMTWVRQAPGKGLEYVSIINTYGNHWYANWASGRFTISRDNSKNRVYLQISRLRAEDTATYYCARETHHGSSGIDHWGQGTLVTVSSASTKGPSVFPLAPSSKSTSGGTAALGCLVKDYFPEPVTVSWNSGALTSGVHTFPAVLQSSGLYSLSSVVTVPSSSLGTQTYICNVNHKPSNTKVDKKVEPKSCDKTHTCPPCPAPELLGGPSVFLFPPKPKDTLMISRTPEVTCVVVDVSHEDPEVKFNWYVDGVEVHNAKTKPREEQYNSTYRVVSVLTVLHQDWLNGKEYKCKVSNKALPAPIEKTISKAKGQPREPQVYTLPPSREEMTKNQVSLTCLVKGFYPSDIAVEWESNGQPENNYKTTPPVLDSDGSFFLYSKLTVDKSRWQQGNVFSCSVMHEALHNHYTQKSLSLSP
light: B1 light
notes: copies: 2 + 2
B15: Ab1H041m/Ab1L (antibody, human IgG1, kappa, name in Kabat numbering)
heavy: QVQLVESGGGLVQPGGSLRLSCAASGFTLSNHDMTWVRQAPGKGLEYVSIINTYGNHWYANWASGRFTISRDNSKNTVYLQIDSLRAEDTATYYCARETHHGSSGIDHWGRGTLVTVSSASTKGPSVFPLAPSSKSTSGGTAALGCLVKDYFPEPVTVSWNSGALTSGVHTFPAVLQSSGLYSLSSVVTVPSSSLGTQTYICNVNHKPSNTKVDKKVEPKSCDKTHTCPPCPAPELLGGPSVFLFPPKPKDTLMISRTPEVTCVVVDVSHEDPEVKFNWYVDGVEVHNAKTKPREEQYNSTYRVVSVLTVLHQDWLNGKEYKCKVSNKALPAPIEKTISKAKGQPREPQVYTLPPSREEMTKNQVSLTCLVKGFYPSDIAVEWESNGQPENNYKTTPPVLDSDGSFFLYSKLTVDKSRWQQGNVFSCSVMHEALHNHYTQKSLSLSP
light: B1 light
notes: copies: 2 + 2
B16: Ab1H028/Ab1L (antibody, human IgG1, kappa, name in Kabat numbering)
heavy: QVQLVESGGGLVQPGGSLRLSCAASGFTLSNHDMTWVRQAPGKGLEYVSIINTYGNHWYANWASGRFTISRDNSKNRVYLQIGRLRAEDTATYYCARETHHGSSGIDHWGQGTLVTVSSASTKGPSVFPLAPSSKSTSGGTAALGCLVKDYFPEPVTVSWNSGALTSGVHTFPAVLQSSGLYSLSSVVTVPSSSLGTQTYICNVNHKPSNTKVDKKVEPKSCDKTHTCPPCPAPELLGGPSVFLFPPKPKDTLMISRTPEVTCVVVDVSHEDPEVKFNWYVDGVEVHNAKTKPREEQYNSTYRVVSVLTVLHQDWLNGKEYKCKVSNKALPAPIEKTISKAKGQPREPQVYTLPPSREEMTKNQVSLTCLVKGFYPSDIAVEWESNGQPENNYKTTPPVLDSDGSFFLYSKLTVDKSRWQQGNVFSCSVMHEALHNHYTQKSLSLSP
light: B1 light
notes: copies: 2 + 2
B17: Ab1H039/Ab1L (antibody, human IgG1, kappa, name in Kabat numbering)
heavy: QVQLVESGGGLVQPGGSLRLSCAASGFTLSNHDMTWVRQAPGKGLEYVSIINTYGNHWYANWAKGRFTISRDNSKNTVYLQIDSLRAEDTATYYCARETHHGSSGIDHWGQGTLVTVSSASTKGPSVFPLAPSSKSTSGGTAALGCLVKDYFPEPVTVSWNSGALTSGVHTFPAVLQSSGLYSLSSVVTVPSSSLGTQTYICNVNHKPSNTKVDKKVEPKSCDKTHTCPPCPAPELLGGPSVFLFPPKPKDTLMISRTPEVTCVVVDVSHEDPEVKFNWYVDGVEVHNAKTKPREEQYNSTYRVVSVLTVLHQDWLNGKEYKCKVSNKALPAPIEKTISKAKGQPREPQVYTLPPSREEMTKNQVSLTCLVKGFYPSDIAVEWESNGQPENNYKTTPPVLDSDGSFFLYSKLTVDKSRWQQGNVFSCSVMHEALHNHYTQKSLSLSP
light: B1 light
notes: copies: 2 + 2
B18: Ab1H035/Ab1L (antibody, human IgG1, kappa, name in Kabat numbering)
heavy: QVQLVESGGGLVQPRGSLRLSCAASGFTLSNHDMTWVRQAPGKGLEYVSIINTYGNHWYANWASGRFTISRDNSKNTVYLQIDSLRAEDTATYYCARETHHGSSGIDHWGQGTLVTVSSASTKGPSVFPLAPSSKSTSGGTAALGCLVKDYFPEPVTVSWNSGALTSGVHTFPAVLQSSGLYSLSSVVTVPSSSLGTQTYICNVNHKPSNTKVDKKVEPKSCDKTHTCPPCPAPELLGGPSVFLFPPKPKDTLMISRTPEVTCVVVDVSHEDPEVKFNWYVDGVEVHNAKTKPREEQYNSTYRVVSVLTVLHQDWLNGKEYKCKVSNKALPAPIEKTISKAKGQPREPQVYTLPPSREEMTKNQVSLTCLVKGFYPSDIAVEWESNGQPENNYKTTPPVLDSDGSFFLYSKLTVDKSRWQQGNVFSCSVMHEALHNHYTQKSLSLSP
light: B1 light
notes: copies: 2 + 2
B19: Ab1H034/Ab1L (antibody, human IgG1, kappa, name in Kabat numbering)
heavy: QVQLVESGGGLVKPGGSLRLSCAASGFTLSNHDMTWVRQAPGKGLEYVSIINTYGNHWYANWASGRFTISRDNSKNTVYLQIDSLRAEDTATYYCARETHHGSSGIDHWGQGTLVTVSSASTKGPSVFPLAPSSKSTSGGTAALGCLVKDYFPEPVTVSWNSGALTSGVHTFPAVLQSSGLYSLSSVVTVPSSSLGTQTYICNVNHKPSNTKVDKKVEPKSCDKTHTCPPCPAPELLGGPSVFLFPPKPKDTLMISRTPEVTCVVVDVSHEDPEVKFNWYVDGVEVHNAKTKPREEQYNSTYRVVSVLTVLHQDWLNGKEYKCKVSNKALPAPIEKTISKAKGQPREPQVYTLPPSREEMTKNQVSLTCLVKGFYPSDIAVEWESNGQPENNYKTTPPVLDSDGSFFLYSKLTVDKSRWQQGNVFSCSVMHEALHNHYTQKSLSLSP
light: B1 light
notes: copies: 2 + 2
B20: Ab1H/Ab1L062 (antibody, human IgG1, kappa)
heavy: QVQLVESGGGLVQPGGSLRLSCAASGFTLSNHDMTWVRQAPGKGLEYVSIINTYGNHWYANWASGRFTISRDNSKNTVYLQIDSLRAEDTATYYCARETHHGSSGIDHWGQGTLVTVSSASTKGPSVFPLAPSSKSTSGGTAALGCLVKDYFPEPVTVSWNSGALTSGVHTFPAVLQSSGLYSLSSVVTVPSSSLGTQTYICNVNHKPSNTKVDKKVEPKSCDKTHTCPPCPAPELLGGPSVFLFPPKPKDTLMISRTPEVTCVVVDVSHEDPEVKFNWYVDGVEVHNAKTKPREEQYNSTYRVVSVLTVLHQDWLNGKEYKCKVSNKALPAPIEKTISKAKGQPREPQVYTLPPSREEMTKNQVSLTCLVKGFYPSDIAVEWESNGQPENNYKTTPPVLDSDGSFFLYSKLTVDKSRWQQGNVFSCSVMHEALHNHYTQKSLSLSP
light: B1 light with S65R, Q79K
notes: copies: 2 + 2
B21: Ab1H/Ab1L061 (antibody, human IgG1, kappa)
heavy: not shown
light: B1 light with Q42K, S76R
notes: copies: 2 + 2

These binders were tested against T1, soluble human FcγRIIb (assay: SPR, Ab-IgE complex over captured hFcγRIIb, pH 7.4, 25C).
Method: (§1) Regarding the produced Fc region variant-containing antibodies, binding assays between soluble human FcγRIIb and antigen-antibody complexes were performed using BIACORE T200 (GE Healthcare). Soluble human FcγRIIb (NCBI accession NM_004001.3) was produced in the form of a His-tagged molecule by a method known in the art. An appropriate amount of an anti-His antibody was fixed onto Sensor chip CM5 (GE Healthcare) by the amine coupling method using a His capture kit (GE Healthcare) to capture human FcγRIIb. Next, an antibody-antigen complex and a running buffer (as a reference solution) were injected, and interaction was allowed to take place with the human FcγRIIb captured onto the sensor chip. 20 mM N-(2-Acetamido)-2-aminoethanesulfonic acid, 150 mM NaCl, 1.2 mM CaCl₂, and 0.05% (w/v) Tween 20 at pH 7.4 was used as the running buffer, and the respective buffer was also used to dilute the soluble human FcγRIIb. To regenerate the sensor chip, 10 mM glycine-HCl at pH 1.5 was used. All measurements were carried out at 25° C. Analyses were performed based on binding (RU) calculated from sensorgrams obtained by the measurements, and relative values when the binding amount of Ab1H/Ab1L (original Ab1) was defined as 1.00 are shown. To calculate the parameters, the BIACORE T100 Evaluation Software (GE Healthcare) was used.

| BIACORE fold (relative binding, original Ab1=1.00) | Binder |
| --- | --- |
| 1.18 fold | B1 |
| 1.23 fold | B2 |

Target: T1, soluble human FcγRIIb
Experiment: as above
Remark: another data set of the same source
Method: as §1

| BIACORE fold (relative binding, original Ab1=1.00) | Binder |
| --- | --- |
| 0.92 fold | B3 |
| 0.76 fold | B4 |
| 1.02 fold | B5 |
| 1.05 fold | B6 |
| 0.06 fold | B7 |
| 0.91 fold | B8 |
| -0.01 fold | B9 |
| 0.96 fold | B10 |
| 1.21 fold | B11 |
| 1.27 fold | B12 |
| 1.04 fold | B13 |
| 1.33 fold | B14 |
| 1.52 fold | B15 |
| 1.37 fold | B16 |
| 1.57 fold | B17 |
| 1.28 fold | B18 |
| 1.21 fold | B19 |

Target: T1, soluble human FcγRIIb
Experiment: as above
Remark: another data set of the same source
Method: as §1

| BIACORE fold (relative binding, original Ab1=1.00) | Binder |
| --- | --- |
| 0.98 fold | B20 |
| 1.02 fold | B21 |
